Assays:
[1] = biological target: T1, human A33 antigen, full length, on cells (human, UniProt Q99795 22-319); assay: flow cytometry, AsPC-1 cells, 61.7 ng/ml, experiment 2
T1 construct: CHO cells transfected with full length A33 cDNA (A33-CHO), or endogenous antigen of LS174T (colon) and AsPC-1 (pancreatic) tumour cells; The cell line is named under assay; also called A33-CHO; A33 antigen on LS174T cells
T1 sequence: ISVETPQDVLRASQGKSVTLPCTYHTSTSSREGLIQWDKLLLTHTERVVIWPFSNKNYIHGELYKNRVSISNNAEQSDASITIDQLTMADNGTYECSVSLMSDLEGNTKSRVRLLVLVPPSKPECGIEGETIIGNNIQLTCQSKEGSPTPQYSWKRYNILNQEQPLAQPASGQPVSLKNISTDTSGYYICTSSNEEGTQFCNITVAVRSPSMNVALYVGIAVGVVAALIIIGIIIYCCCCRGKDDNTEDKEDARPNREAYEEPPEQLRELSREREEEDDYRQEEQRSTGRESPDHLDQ

[2] = biological target: T2, human recombinant A33 antigen (human, UniProt Q99795 22-235); assay: rH-GPA33 binding ELISA, first round supernatant
T2 construct: also called rH-GPA33; rHGPA33
T2 sequence: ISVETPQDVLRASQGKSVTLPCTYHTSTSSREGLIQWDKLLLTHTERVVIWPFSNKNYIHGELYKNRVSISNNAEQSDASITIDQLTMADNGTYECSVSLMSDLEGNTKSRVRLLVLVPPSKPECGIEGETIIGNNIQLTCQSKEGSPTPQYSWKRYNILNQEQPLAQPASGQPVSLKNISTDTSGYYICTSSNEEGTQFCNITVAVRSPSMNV

[3] = biological target: T1, human A33 antigen, full length, on cells; assay: flow cytometry, AsPC-1 cells, 1666.7 ng/ml, experiment 1
[4] = biological target: T1, human A33 antigen, full length, on cells; assay: flow cytometry, AsPC-1 cells, 2.3 ng/ml, experiment 1
[5] = biological target: T1, human A33 antigen, full length, on cells; assay: flow cytometry, AsPC-1 cells, 61.7 ng/ml, experiment 1
[6] = biological target: T1, human A33 antigen, full length, on cells; assay: flow cytometry, AsPC-1 cells, 185.2 ng/ml, experiment 1
[7] = biological target: T1, human A33 antigen, full length, on cells; assay: flow cytometry, AsPC-1 cells, 6.9 ng/ml, experiment 1
[8] = biological target: T1, human A33 antigen, full length, on cells; assay: flow cytometry, AsPC-1 cells, 555.6 ng/ml, experiment 1
[9] = biological target: T2, human recombinant A33 antigen; assay: rH-GPA33 binding ELISA, 2ug/mL of 31.1, supernatant
Protocol: (§1) Human IgG ELISA, rH-GPA33 Binding ELISA, cell Flow Cytometry (LS174T or AsPAC1), IHC staining (LS174T FFPE, tumor FFPE and Frozen tumor sections) and Coomassie blue staining of SDS-PAGE gel were used for the screening. Antibody in the culture supernatant was purified by Protein A/G purification in the column and dissolved in PBS buffer after three times dialysis. Aliquots of the antibodies were kept at -20° C. for storage.
(§2) Each combination was produced by transient transfection by using Expi293 Expression System Kit (Gibco, cat# A14635). […] Methods of Human IgG ELISA, rH-GPA33 Binding ELISA, LS174T cell Flow Cytometry, IHC staining on LS174T FFPE sections and Coomassie blue staining of SDS-PAGE gel were used for the initial screening.

[10] = biological target: T1, human A33 antigen, full length, on cells; assay: flow cytometry, AsPC-1 cells, 0 ng/ml (background, no antibody), experiment 2
[11] = biological target: T1, human A33 antigen, full length, on cells; assay: flow cytometry, AsPC-1 cells, 5000 ng/ml, experiment 1
[12] = biological target: T1, human A33 antigen, full length, on cells; assay: flow cytometry, AsPC-1 cells, 1666.7 ng/ml, experiment 2
[13] = biological target: T1, human A33 antigen, full length, on cells; assay: flow cytometry on LS174T cells, 0.37ug/mL
Protocol: as §1, §2

[14] = biological target: T1, human A33 antigen, full length, on cells; assay: flow cytometry, AsPC-1 cells, 6.9 ng/ml, experiment 2
[15] = biological target: T1, human A33 antigen, full length, on cells; assay: flow cytometry, AsPC-1 cells, 0 ng/ml (background, no antibody), experiment 1
[16] = biological target: T1, human A33 antigen, full length, on cells; assay: flow cytometry, AsPC-1 cells, 5000 ng/ml, experiment 2
[17] = biological target: T1, human A33 antigen, full length, on cells; assay: IHC on LS174T FFPE sections, 20ug/mL
Protocol: as §1, §2

[18] = biological target: T1, human A33 antigen, full length, on cells; assay: flow cytometry, AsPC-1 cells, 555.6 ng/ml, experiment 2
[19] = biological target: T1, human A33 antigen, full length, on cells; assay: flow cytometry, AsPC-1 cells, 2.3 ng/ml, experiment 2
[20] = biological target: T1, human A33 antigen, full length, on cells; assay: flow cytometry, AsPC-1 cells, 185.2 ng/ml, experiment 2
[21] = biological target: T1, human A33 antigen, full length, on cells; assay: flow cytometry, AsPC-1 cells, 20.6 ng/ml, experiment 2
[22] = biological target: T1, human A33 antigen, full length, on cells; assay: flow cytometry, AsPC-1 cells, 20.6 ng/ml, experiment 1

B1: humanized 31.1 antibody #11 (sdr31.1-HC + sdr31.1-LC) (antibody, human IgG1, kappa, V domains shown)
VH: QIQLVQSGAEVKKPGASVKVSCKASGYTFTNYGMNWVRQAPGKGLEWMGWINPYTGEPTYAQKFQGRVTFTLDTSISTAYMELSRLRSDDTAVYFCARAYYGKYFDYWGQGTTVTVSS
VL: SIQMTQSPSSLSASVGDRVTITCRASQSISNDLAWYQQKPGQSPKLLIYYASNRYTGVPDRFSGSGYGTDFTLTISSLQPEDFAVYFCQQDYSSPLTFGAGTKLEIKR
notes: Full heavy and light chains; supernatant in the first screen, Protein A/G purified in the third round; used as negative control; also called Sample ID 11; sdr-HC + sdr-LC
[1]
  MFI: 5.3 MFI
[2]
  binding result: no binding
[3]
  MFI: 38.9 MFI
[4]
  MFI: 3.4 MFI
[5]
  MFI: 5.9 MFI
[6]
  MFI: 8.2 MFI
[7]
  MFI: 3.6 MFI
[8]
  MFI: 16.2 MFI
[9]
  OD Value of rH-GPA33 Binding ELISA: 0.06 OD
[10]
  MFI: 3.6 MFI
[11]
  MFI: 117 MFI
[12]
  MFI: 39 MFI
[13]
  MFI: 5.6 MFI
[14]
  MFI: 3.6 MFI
[15]
  MFI: 3.6 MFI
[16]
  MFI: 117 MFI
[17]
  H-Score of IHC: 160 H-Score
[18]
  MFI: 16.6 MFI
[19]
  MFI: 3.5 MFI
[20]
  MFI: 8.2 MFI
[21]
  MFI: 4 MFI
[22]
  MFI: 4 MFI
